Among the data in publication doi:10.1101/2024.08.22.609182 are stoichiometry N (AK2 per AIFM1 (printed as 1:1)) values, retold here.

In this experiment the target is AIFM1 OM (obligate monomeric AIFM1 variant, triple mutant in the dimerisation interface) (human) (UniProt O95831). The experiment can be described thus: mass photometry.
Chain of AIFM1 OM (obligate monomeric AIFM1 variant, triple mutant in the dimerisation interface) (human) (O95831 102-613, change not shown): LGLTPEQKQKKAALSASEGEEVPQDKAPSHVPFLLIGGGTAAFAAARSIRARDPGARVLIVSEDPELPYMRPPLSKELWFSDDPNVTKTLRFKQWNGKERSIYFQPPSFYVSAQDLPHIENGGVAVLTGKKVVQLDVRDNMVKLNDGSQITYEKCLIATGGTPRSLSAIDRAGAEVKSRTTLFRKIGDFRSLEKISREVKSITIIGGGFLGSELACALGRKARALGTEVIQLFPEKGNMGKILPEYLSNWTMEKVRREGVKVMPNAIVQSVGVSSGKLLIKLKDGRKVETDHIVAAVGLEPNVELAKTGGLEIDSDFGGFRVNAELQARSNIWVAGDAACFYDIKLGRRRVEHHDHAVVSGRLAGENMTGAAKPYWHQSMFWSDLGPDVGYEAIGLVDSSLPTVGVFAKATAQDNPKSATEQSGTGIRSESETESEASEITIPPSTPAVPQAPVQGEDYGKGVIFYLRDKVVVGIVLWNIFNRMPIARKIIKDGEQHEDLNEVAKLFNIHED

“adenylate kinase 2 (AK2), recombinant human (from UniProt P54819 1-239) (enzyme)” yielded a stoichiometry N (AK2 per AIFM1 (printed as 1:1)) of 1.
